Source: the NTF2 design screens of Basanta et al. (2020)

Assay: protease stability score; higher = more stable; yeast display proteolysis, trypsin and chymotrypsin;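 further: log10 excess protease needed over predicted unfolded state with 0 meaning unfolded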

Sequence	protease stability score
DEEQVKKVVKVLMEYFKRGDVDQIVRMIDEDVEFKLLDEKKKGQEQVKTVIKKLHDQGAEVHVDHAEVEGDKATVDTRWHIGDHTMEATVEYYVEGDRVKKVKVQWSEEAKKALHAG	1.06
DHTAARIAKEIMENQDKGDEDRLRKLLDKDVRLKYGDKEIHGREHAARTLKRERRQIRIDRRIRHVEIQGDEVSIEFDMHVQHNGKPRDRKAVMVFRMQGDKLEEMTQDNTK	0.191
DEERMLKVAETVIRAVRNGNADKAVKYIDEGGEATFGDTKLKGPEHIYEYVKKFKDQGIEVHYKEEHKEGDKVTVHTQAHLGDATADFEVHYQVKGDKLDRMEVRMDKEQLKKFRDS	-0.347
DEEVSEAVQRYLNALKHNNPDQVQEQMDPNARVQYGDKVLTGREDIKTFMDTKIEQMRLEIKSVSVDVHGEEVRVEADVVYTHNGQPRRNKITITARVHNGVFKSMRVETRG	-0.064
DEEQEKTIHRAHKHNDEDSFRKLFDKDATMQIGNKTFHGREEVETAVTQWHTQVDHLRVDHMRVTNGKLQIDFTAVINGQRIELRVKIKANNGKVKSVKIQARSEEDNEHLKKELD	0.407
DRRETAKEVMKKISDILKENDENRLEDLMDPNAKVNVGDKRVHGRREAANQMVEEHTRYDHMDMDIRRIDVDGDKIIVIFTVTLTNNGKTDTKNVVIYFTVHNGRVQITRIRHK	-0.157
DEDTESNFRQFIRAWKSGNPNELRRLAPPDAHLKVGDKEWHGMEKAVTYLEREVKESTFDIKRWDVKVDGNSVTAHVKMVVHDNGQPNNYKVEMNANFHNGQIESYNVETRK	0.267
DHEEKAKKFFDDLLRAVKHNDETQLERLFDKNVRFNVGEHNFRGREEFVKMVRTMVEQVDHVTATIVSIETNGDKVNLVAQWDMSHNGNSKRIRVLVVLDDNNGRVVAREMSEK	2.2
DDDQRRKAAQRAHELVKTGDPEEIEKLADKHARIQVGDKRVQGREEAKKIMKEFRERVDHIRISDVQVDGDKIKVDVVVVHNGTKKHVVFVFRVHNGKATEISLEDK	0.027
DERKAEHWLDQLAQMLRTGDESHVARLMDENVNVVIGDQRFHGSDEARKAIRQLKERIDHLEVKDMKNEGNKMVVKAVADVNGRTHHLDVQMEFKNGRITRASFDPTAIKQAEG	1.14
DSHLQEEVERFWKQLEHGNRQNLRELADEEVNFVYGDKTIHGREKAATHMSKRVRKIQIEWKTYSAEVHNGKLDATAEWRADHNGKPKDVKMTFYVKVHNGRIKEVNIQEEK	0.178
DSEEAKKADEVVQTNDEDRLRDLLDEDARIIIGEFTFHGRHKAEEAVKRFQDAVDHIEIEDYDVQGNEITVVFTVSFNGKKMRFKASFHLRNGRLKHMSMTFTDPDQEREMSNLLR	0.56
DERNSELLKKVQEAWDHGDPRKLDEQMDPNAKVNVGDKNLHGKEQLRNTLEEDTRHSRVRVDYDSVTDHNGRVRASATFQDVINGKPVRDTFDFVAEVNNGKMKMLKVRVPEDNKRKLKR	0.022
DEDLSRNFHQFIEALKQNDTDRMKELIDPNARMRYGDKQLHGRENILNYWKKLNDQARVDLDLKSVRNDENHIRYNYKMRVHVNGRPVEDTATAEIRATNGRIVDIYIDFDPEKLRQIES	2.34
DESEMDTAVKIVEKGDPHQYKKLIDPNAKIIVGDKELHGREDVERLLHKLYEQADHVQINSITVQGDELRVDAQFKFNGRDIRMVVEFRVHNGRVKSAHIQATSEEQERELSKMIS	1.35
DEHAARVFLELLKAAETGDEKRLKRLADPNARIQVGDKHVDGMDEATKKIVKTWEKSRIRFEIKSYDVDGEKVRVNMQMTNRDNGEPDSKNAHFTVEVRNGHIKHADLQHHG	-0.223
DEEALNLFHRMINAIQENDPDTLHRLVDPNARIQIGDHDIHGMKTYVREVEKTLRSMRIKFDIKSVDVTGDKVVIDEKVDFDINGKPVHNKVEMRIKAHNGTVKHLDWKVPEDELKKIEE	-0.232
DEEAIKQAKKLLDALRTGDEETLKEMIDPNARIHVGDKEVHGREEAAEQWQRRQEEQSMDWKVKSVENTNGRAEFRATATRRHNGQPDHFDFTWRVQAHNGRVKHMQVETRG	-0.262
DEHVSRNLLRVLKLMHKGNFEEVVNNMDPNARIKVGDKEVHGREKEQTKNRKKEKHMELKVDDYRFRDNNGQVEAEVDQKFTHDGQPRSERFKFRVEAHNGRIKKQSQKEDR	0.007
DEERKKQAEHFMRVYQQGNEEELNKLMDPNVKANVGDKEWQGREKMAKDTREKLEHSKLQLHSVSVDAQGNNIRIDVSFVVNHNGEPRRNHQTIIIHIDNGRITRLEVKDTS	0.004
KEEDIVKVAKKLAKIVEEGNPDELKKLLSPDLEVKYGDKERHGADELVKVLKKLLRKGVRIQVKELQVEGNTATTVLEYQHGDKKHDVEIKAKLTGGRLKKLEVRFSPKAQEIVTQG	2.02
DEDARKQAQRWITNLNNGNEKEVSKQFDPNARMDVGNRDVHGTEQLLQKLRTRLKQARQSIELRDIDRQGDNLQLDVRMEFVHNGQPDDVRFTVQMNYHNGKIKRANWRIPEEDQKKLER	0.165
DEDEYAHQVAQELRKAMETGDSDRIARLFDENAELRVGDKVWHGRDQIRKYWHEWLRRADTVDVKIDEVDVEGDKARAHIRVRAEDNGRHQEFTVKMTLKNKNGRAKITSMHVS	1.57
DREEAKKIRKNWETNNWDHFAHQADENVRVRVGDKKYHGHHKLLEIMHQIEKRIDHARFDHIDLDGEKLTVDFQMVVNGKKVRYVMFIKVSNGRIKEVNIQFTSEEEERRAQEALR	0.732
DEERVKQLAEKVFKYVIKGDKDEVRKQGKPDVKYKYIDKEYEGPDALEKAVKLVKRLGMKAETKELKVKGNTVRAKFEYRKGDQTMKTEVEVHYEGDVVKEAKVKISDEVKKFVHQG	0.309
